This passage reports induction of GTPγS agonist signal over baseline, A2a receptor co-expressed with XLGolf in Sf9 cells, efficacy (Emax) of dopamine-induced [35S]-GTPγS binding, membranes of Sf9 cells co-expressing DRD1 and XLGolf and magnitude of (-)-isoproterenol-induced GTPγS binding above the baseline, membranes of Sf9 cells expressing β2 receptor and XLGolf (% above the baseline) results from patent publication US20070254313A1, “Gnal Splice Variant and Uses Thereof” (AstraZeneca AB, priority 2003, published 2007).

Assay in all cases: cell-based or functional assay
For assay [1], the target named is human adenosine A2a receptor (ADORA2A) (human) (UniProt P29274).
Assay [2] has as its target human dopamine D1A receptor (human) (UniProt P21728).
Assay [3] addresses human β2 adrenergic receptor (human) (UniProt P07550).

Chain of human dopamine D1A receptor (human) (P21728 whole entry): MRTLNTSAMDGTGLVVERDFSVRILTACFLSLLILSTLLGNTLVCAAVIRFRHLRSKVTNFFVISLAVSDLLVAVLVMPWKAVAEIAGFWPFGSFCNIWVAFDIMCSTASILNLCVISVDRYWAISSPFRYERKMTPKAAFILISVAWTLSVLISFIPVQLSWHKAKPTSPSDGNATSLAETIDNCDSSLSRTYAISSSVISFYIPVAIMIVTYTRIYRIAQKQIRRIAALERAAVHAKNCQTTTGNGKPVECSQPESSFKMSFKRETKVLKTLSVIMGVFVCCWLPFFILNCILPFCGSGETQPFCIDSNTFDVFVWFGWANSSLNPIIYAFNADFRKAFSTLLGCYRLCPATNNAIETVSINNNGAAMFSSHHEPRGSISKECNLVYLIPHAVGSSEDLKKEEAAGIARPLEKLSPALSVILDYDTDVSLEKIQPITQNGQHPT
Chain of human adenosine A2a receptor (ADORA2A) (human) (P29274 whole entry): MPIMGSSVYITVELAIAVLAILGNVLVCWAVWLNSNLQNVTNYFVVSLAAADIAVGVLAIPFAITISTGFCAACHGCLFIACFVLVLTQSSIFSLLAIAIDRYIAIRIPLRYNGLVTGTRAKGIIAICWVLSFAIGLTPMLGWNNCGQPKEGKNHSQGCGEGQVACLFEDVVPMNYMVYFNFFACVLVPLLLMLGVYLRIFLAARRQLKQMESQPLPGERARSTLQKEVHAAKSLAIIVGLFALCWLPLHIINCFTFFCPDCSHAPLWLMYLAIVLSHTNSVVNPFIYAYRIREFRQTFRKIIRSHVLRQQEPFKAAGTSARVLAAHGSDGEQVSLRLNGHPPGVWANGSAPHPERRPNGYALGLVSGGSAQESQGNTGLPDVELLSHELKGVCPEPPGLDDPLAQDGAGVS

B1: human XLGolf protein (protein)
chain: MGLCYSLRPLLFGGPGDDPCAASEPPVEDAQPAPAPALAPVRAAARDTARTLLPRGGEGSPACARPKADKPKEKRQRTEQLSAEEREAAKEREAVKEARKVSRGIDRMLRDQKRDLQQTHRLLLLGAGESGKSTIVKQMRILHVNGFNPEEKKQKILDIRKNVKDAIVTIVSAMSTIIPPVPLANPENQFRSDYIKSIAPITDFEYSQEFFDHVKKLWDDEGVKACFERSNEYQLIDCAQYFLERIDSVSLVDYTPTDQDLLRCRVLTSGIFETRFQVDKVNFHMFDVGGQRDERRKWIQCFNDVTAIIYVAACSSYNMVIREDNNTNRLRESLDLFESIWNNRWLRTISIILFLNKQDMLAEKVLAGKSKIEDYFPEYANYTVPEDATPDAGEDPKVTRAKFFIRDLFLRISTATGDGKHYCYPHFTCAVDTENIRRVFNDCRDIIQRMHLKQYELL
For B1, the induction of GTPγS agonist signal over baseline, A2a receptor co-expressed with XLGolf in Sf9 cells in assay [1] was 3 fold. This molecule also returned an efficacy (Emax) of dopamine-induced [35S]-GTPγS binding, membranes of Sf9 cells co-expressing DRD1 and XLGolf in assay [2] of 404%. In assay [3], this molecule returned a magnitude of (-)-isoproterenol-induced GTPγS binding above the baseline, membranes of Sf9 cells expressing β2 receptor and XLGolf (% above the baseline) of 700.
